In paper PMC6353796, “Thermostable Branched-Chain Amino Acid Transaminases From the Archaea Geoglobus acetivorans and Archaeoglobus fulgidus: Biochemical and Structural Characterization” (Frontiers in Bioengineering and Biotechnology, 2019):
Where “and” joins values, the source holds several entries; their conditions need not be identical. Equal values may be shown once.

Biological target: the molecule itself
Test: SEC; AF0933 on Superdex 200 HiLoad (1.6 x 60 cm) in 50 mM Tris-HCl, pH 7.5, 500 mM NaCl, 0.05 mM PLP; native molecular mass by size exclusion

B1: AF0933, branched-chain amino acid transaminase (BCAT) from Archaeoglobus fulgidus (enzyme)
chain: MLYVYMDGEFVPENEAKVSIFDHGFLYGDGVFEGIRAYNGRVFRLKEHIDRLYDSAKAIDLEIPITKEEFMEIILETLRKNNLRDAYIRPIVTRGIGDLGLDPRKCQNPSIIVITKPWGKLYGDLYEKGLTAITVAVRRNSFDALPPNIKSLNYLNNILAKIEANAKGGDEAIFLDRNGYVSEGSGDNIFVVKNGAITTPPTINNLRGITREAVIEIINRLGIPFKETNIGLYDLYTADEVFVTGTAAEIAPIVVIDGRKIGDGKPGEITRKLMEEFSKLTESEGVPIYE
modifications: PLP covalently bound (Schiff base, internal aldimine) to Lys150
notes: Class IV branched-chain amino acid transaminase AF0933 of Archaeoglobus fulgidus; subunit 32.4 kDa, 290 amino acids; synthetic gene optimised for E. coli; Mainly homo-hexamer in solution with a small dimeric fraction; hexamer in the crystal; also called AF0933_holo; AF0933_GABC; source: E. coli Rosetta (DE3)-pLysS (pLATE51-AF0933), purified (heat step 70°C, Ni-NTA, Superdex 200)
stoichiometry N: 6 and 2
